We go through 2 molecules from patent US20170306038A1, “COMPOSITIONS AND METHODS OF USE FOR AUGMENTED IMMUNE RESPONSE AND CANCER THERAPY” (priority 2014, published 2017).

The target in assay [1] is T1, human GITR (Homo sapiens, UniProt Q9Y5U5).
T1 construct: expressed in transfected cells; host or cells: HEK-293 (293) cells
T1 sequence (Q9Y5U5 26-241): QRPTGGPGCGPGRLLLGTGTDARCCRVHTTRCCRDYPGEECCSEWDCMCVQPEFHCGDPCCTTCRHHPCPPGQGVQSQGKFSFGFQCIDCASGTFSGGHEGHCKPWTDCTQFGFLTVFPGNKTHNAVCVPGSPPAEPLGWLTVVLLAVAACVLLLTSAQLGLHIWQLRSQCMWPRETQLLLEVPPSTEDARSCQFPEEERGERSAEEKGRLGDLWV
Nature of the assay: NFκB-Luciferase reporter gene assay, 293 cells with human GITR. The assay is classed as cell-based. Conditions: antibodies crosslinked. Here is the method: To generate the 293-hGITR-NFκB reporter gene cells line, 293 cells were stably transfected with an NFκB-Luciferase reporter gene and human GITR (or cyno GITR). Activation of the GITR signaling pathway in these cells was determined by measuring the levels of luciferase induced within the cells after a 24 hour incubation with GITR-L or agonistic antibody. To assess the effects of cross-linking Abs, they were incubated with an excess of a F(ab′)2 goat anti-human Fcγ fragment specific antibody or protein A before using in the reporter gene assay.
Functional activity of MABs were tested in an NFkB reporter gene assay for agonist activity. MAB was diluted to 6 μg/mL in PBS and incubated for 30 minutes at room temperature in the presence/absence of a 3 fold excess of F(ab′)2 fragment goat anti-human Fcγ specific crosslinker. Alternatively, MAB was diluted to 6 μg/mL in PBS and incubated for 30 minutes at room temperature in the presence/absence of a 2 fold excess of Protein A. 10 μL of incubated MAB was then added to a 384 well white clear bottomed assay plate. A HEK-293 cell line stably transfected with hGITR and a NFκB reporter gene was diluted to 5×10^5 cells/mL and 20 μL of the cell suspension was added to each well. […] 30 μL of Cell Bright Glo was added to each well and the plate was read for luminescence on the Acquest.

The target in assay [2] is T2, human GITR (Homo sapiens, UniProt Q9Y5U5).
T2 construct: coated with rat, mouse, human or cyno GITR extracellular domain (ECD) at 50 ng per well
T2 sequence (Q9Y5U5 26-162 limits assumed): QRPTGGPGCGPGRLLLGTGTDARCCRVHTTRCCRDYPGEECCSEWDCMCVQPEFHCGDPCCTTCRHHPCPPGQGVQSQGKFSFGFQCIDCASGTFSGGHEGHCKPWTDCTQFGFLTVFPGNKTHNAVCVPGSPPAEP
Put plainly: ELISA binding to GITR extracellular domain, human. How it is done: (§1) Binding of the MABs to GITR from various species, various alanine mutant constructs or GITR extracellular domain—was assessed using a 384-well plate was coated with rat, mouse, human or cyno GITR extracellular domain (ECD) at 50 ng per well and incubated overnight at 4° C. The plate was blocked with a solution of 1% BSA in PBS for one hour at room temperature and then rinsed three times with PBST. The MAB was then diluted to 0.5 μg/mL or 1 μg/mL in PBS and 20 μL was added to each well. The plate was incubated for 1 hour at room temperature and then washed three times with PBST. Anti-human kappa antibody (Sigma #A7164), anti-human gamma antibody (Jackson Immunoresearch 109-036-098), goat anti-mouse antibody (Jackson ImmunoResearch 115-035-071) conjugated to HRP was diluted 1:5000 in Blocking Buffer (25 μL) and added to each well, or a hrp conjugated HIS antibody (QIAGEN 1014992) diluted 1:1000 in Blocking Buffer was added. The plate was incubated for 1 hour at room temperature, and then washed six times with PBST. 25 μL of SureBlue TMB (KPL 52-00-02) substrate was added to each well and the plate was incubated for about 10 min at room temperature. Plates were read at 650 nm in a spectrophotometer.

The subject of another assay is cynomolgus GITR. Nature of the assay: ELISA binding to GITR extracellular domain, cyno. How it is done: as §1
(ELISA stands for enzyme-linked immunosorbent assay.)

The next assay deals with rodent GITR. Put plainly: ELISA binding to GITR extracellular domain, rodent. Also noted: species or system rat, mouse. Here is the method:
as §1

B1: GITRL: recombinant human GITR ligand (GITR-L) (protein)
chain: ETAKEPCMAKFGPLPSKWQMASSEPPCVNKVSDWKLEILQNGLYLIYGQVAPNANYNDVAPFEVRLYKNKDMIQTLTNKSKIQNVGGTYELHVGDTIDLIFNSEHQVLKNNTYWGIILLANPQFIS
For the molecule B1, the “NFκB activity / intracellular signaling” value in the assay with human GITR [1] was “activates intracellular signaling”.

B2: MAB1: murine monoclonal GITR agonist antibody (parental); VH SEQ ID NO:61, VL SEQ ID NO:59 (antibody, V domains shown)
VH: QVQLKESGPGLVAPSQSLSITCTVSGFSLRSYGVDWVRQPPGKGLEWLGVIWGGGGTNYNSALMAKLSISKDKSKSQVFLKMNSLQTDDTAMYYCAKHAYGHDGGFAMDYWGQGTSVTVSS
VL: NIVMTQSPKSMSMSVGERVTLSCKASENVDTFVSWYQQKPDHSPKLLIYGASNRYTGVPDRFTGSGSATDFTLTISSVQAEDLADYHCGQSYSYPFTFGSGTKLEIK
For B2, in the assay with human GITR [2], the “binding to human GITR in ELISA” value is on record as “binds”. Further, the “binding to cynomolgus GITR in ELISA” value in the assay with cynomolgus GITR is reported as “binds”. Moreover, the “binding to rodent GITR in ELISA” value in the assay on rodent GITR was “not rodent GITR”.
